Results on 1 molecule are retold here after publication doi:10.1101/2023.03.23.533937, “From Microstates to Macrostates in the Conformational Dynamics of GroEL: a Single-Molecule FRET Study” (bioRxiv, 2023).

In the experiment the target is T1, double-ring GroEL construct with the same labeling positions (255C/428C) (E. coli, UniProt P0A6F5 2-548; P0A6F5 2-548, 255C | 428C, AlexaFluor 488 and AlexaFluor 594 attached at the labeling positions 255 and 428 (cysteines)).
T1 construct: GroEL subunit, E. coli, with cysteines at the labeling sites E255 and D428; unmodified GroEL subunit, E. coli; GroEL has 14 subunits in two heptameric rings; That the remaining subunits are unmodified wild-type GroEL is surmised from 'the same reassembly procedure'; also called double-ring variant; double-ring construct; source: prepared using the same reassembly procedure as the labeled SR1 …
The experiment can be described thus: intramolecular single-molecule FRET of one labeled subunit (conformational read-out); pulsed-interleaved excitation smFRET on diluted, freely diffusing labeled complexes; 1 mM ATP with a stoichiometric excess of GroES relative to GroEL (also with ADP-BeFx in place of ATP); about 22 °C. To be noted: both partners purified.

B1: co-chaperone GroES (natural protein, E. coli)
chain: MNIRPLHDRVIVKRKEVETKSAGGIVLTGSAAAKSTRGEVLAVGNGRILENGEVKPLDVKVGDIVIFNDGYGVKSEKIDNEEVLIMSESDILAIVEA
notes: GroES, co-chaperone of GroEL, E. coli; a heptameric complex; Source and construct of GroES may stand in the supporting information; also called co-chaperonin GroES
Consider B1, for which the binding result was “binds”.
